Measurements from publication PMC8102066 (2021).

B1: HA-SNAP-mGluR3-C127A [modified: SNAP tag labelled with BG-LD555 (BG-LD655 in two-colour SiMPull); SNAP tag labelled with BG-LD555 (BG-LD655 in two-colour SiMPull)] [rat] / itself (parent complex)
chain: LGDHNFMRREIKIEGDLVLGGLFPINEKGTGTEECGRINEDRGIQRLEAMLFAIDEINKDNYLLPGVKLGVHILDTCSRDTYALEQSLEFVRASLTKVDEAEYMAPDGSYAIQENIPLLIAGVIGGSYSSVSIQVANLLRLFQIPQISYASTSAKLSDKSRYDYFARTVPPDFYQAKAMAEILRFFNWTYVSTVASEGDYGETGIEAFEQEARLRNICIATAEKVGRSNIRKSYDSVIRELLQKPNARVVVLFMRSDDSRELIAAANRVNASFTWVASDGWGAQESIVKGSEHVAYGAITLELASHPVRQFDRYFQSLNPYNNHRNPWFRDFWEQKFQCSLQNKRNHRQVCDKHLAIDSSNYEQESKIMFVVNAVYAMAHALHKMQRTLCPNTTKLCDAMKILDGKKLYKEYLLKINFTAPFNPNKGADSIVKFDTFGDGMGRYNVFNLQQTGGKYSYLKVGHWAETLSLDVDSIHWSRNSVPTSQCSDPCAPNEMKNMQPGDVCCWICIPCEPYEYLVDEFTCMDCGPGQWPTADLSGCYNLPEDYIKWEDAWAIGPVTIACLGFLCTCIVITVFIKHNNTPLVKASGRELCYILLFGVSLSYCMTFFFIAKPSPVICALRRLGLGTSFAICYSALLTKTNCIARIFDGVKNGAQRPKFISPSSQVFICLGLILVQIVMVSVWLILETPGTRRYTLPEKRETVILKCNVKDSSMLISLTYDVVLVILCTVYAFKTRKCPENFNEAKFIGFTMYTTCIIWLAFLPIFYVTSSDYRVQTTTMCISVSLSGFVVLGCLFAPKVHIVLFQPQKNVVTHRLHLNRFSVSGTATTYSQSSASTYVPTVCNGREVLDSTTSSL
B2: HA-SNAP-mGluR2 [modified: SNAP tag labelled with BG-LD555 (BG-LD655 in two-colour SiMPull); SNAP tag labelled with BG-LD555 (BG-LD655 in two-colour SiMPull)] [rat] / itself (parent complex)
chain: EGPAKKVLTLEGDLVLGGLFPVHQKGGPAEECGPVNEHRGIQRLEAMLFALDRINRDPHLLPGVRLGAHILDSCSKDTHALEQALDFVRASLSRGADGSRHICPDGSYATHSDAPTAVTGVIGGSYSDVSIQVANLLRLFQIPQISYASTSAKLSDKSRYDYFARTVPPDFFQAKAMAEILRFFNWTYVSTVASEGDYGETGIEAFELEARARNICVATSEKVGRAMSRAAFEGVVRALLQKPSARVAVLFTRSEDARELLAATQRLNASFTWVASDGWGALESVVAGSERAAEGAITIELASYPISDFASYFQSLDPWNNSRNPWFREFWEERFHCSFRQRDCAAHSLRAVPFEQESKIMFVVNAVYAMAHALHNMHRALCPNTTHLCDAMRPVNGRRLYKDFVLNVKFDAPFRPADTDDEVRFDRFGDGIGRYNIFTYLRAGSGRYRYQKVGYWAEGLTLDTSFIPWASPSAGPLPASRCSEPCLQNEVKSVQPGEVCCWLCIPCQPYEYRLDEFTCADCGLGYWPNASLTGCFELPQEYIRWGDAWAVGPVTIACLGALATLFVLGVFVRHNATPVVKASGRELCYILLGGVFLCYCMTFVFIAKPSTAVCTLRRLGLGTAFSVCYSALLTKTNRIARIFGGAREGAQRPRFISPASQVAICLALISGQLLIVAAWLVVEAPGTGKETAPERREVVTLRCNHRDASMLGSLAYNVLLIALCTLYAFKTRKCPENFNEAKFIGFTMYTTCIIWLAFLPIFYVTSSDYRVQTTTMCVSVSLSGSVVLGCLFAPKLHIILFQPQKNVVSHRAPTSRFGSAAPRASANLGQGSGSQFVPTVCNGREVVDSTTSSL

Variants of: B1
Assay: SiMPull; SNAP-tagged constructs labeled with LD555; 6 movies; read off a plot
Work on chain 1 S664A, chain 1 F668A, chain 1 G672A yielded a screen value of about 74%.

Variants of: B2
Assay: SiMPull; shaded bar, data repeated from Figure 1F; read off a plot
In the case of chain 1 C103A, the screen value is reported as about 91%.
